Drawing on patent US20200165335A1 (Seagen, published 2020), this text covers EC50 for 8 molecules.

The chains are these.
T1: human LIV-1 (human, UniProt Q13433 29-755)
T1 construct: also called hLIV-1; Q13433
T1 sequence: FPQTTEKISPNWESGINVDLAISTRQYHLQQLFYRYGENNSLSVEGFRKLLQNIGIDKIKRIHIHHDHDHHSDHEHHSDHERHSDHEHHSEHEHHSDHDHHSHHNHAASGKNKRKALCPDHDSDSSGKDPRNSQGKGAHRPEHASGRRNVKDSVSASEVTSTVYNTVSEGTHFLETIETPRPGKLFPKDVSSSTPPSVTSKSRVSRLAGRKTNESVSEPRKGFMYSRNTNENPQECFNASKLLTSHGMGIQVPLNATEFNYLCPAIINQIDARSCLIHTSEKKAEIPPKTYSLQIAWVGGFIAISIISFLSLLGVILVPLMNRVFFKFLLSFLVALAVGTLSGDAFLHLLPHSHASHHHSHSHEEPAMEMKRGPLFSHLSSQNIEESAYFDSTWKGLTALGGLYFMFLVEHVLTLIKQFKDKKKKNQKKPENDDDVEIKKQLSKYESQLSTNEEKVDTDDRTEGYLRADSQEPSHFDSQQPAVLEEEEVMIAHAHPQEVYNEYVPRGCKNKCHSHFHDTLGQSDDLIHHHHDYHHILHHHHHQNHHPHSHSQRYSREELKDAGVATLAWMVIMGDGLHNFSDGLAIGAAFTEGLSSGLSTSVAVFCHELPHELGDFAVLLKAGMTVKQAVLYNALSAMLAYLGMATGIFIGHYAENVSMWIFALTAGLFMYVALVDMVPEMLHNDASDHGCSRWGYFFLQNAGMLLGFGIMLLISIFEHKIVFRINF

B1: humanized BR2-22a antibody HDLF (antibody, V domains shown)
VH: QVQLVQSGAEVKKPGASVKVSCKASGLTFTDYYMHWVRQAPGQGLEWMGWIDPENGDTEYGPKFQGRVTMTRDTSISTAYMELSRLRSDDTAVYYCTVHNAHYGTWFAYWGQGTLVTVSS
VL: DVVMTQSPLSLPVTLGQPASISCRSSQSLLHSSGNTYLEWYLQRPGQSPKPLIYKISTRFSGVPDRFSGSGSGTDFTLKISRVEAEDVGVYYCFQGSHVPYTFGGGTKVEIKR
notes: also called hLIV-22 HD + hLIV-22 LF
B2: humanized BR2-22a antibody HELF (antibody, V domains shown)
VH: QVQLVQSGAEVKKPGASVKVSCKASGLNIEDYYMHWVRQAPGQGLEWIGWIDPENGDTEYGPKFQGKATMTADTSINTAYMELSRLRSDDTAVYYCTVHNAHYGTWFAYWGQGTLVTVSS
VL: DVVMTQSPLSLPVTLGQPASISCRSSQSLLHSSGNTYLEWYLQRPGQSPKPLIYKISTRFSGVPDRFSGSGSGTDFTLKISRVEAEDVGVYYCFQGSHVPYTFGGGTKVEIKR
notes: 15 backmutations; also called hLIV-22 HE + hLIV-22 LF; HELF historic control
B3: humanized BR2-22a antibody HFLG (antibody, V domains shown)
VH: QVQLVQSGAEVKKPGASVKVSCKASGLTIEDYYMHWVRQAPGQGLEWMGWIDPENGDTEYGPKFQGRVTMTRDTSISTAYMELSRLRSDDTAVYYCAVHNAHYGTWFAYWGQGTLVTVSS
VL: DVVMTQSPLSLPVTLGQPASISCRSSQSLLHSSGNTYLEWYQQRPGQSPRPLIYKISTRFSGVPDRFSGSGSGTDFTLKISRVEAEDVGVYYCFQGSHVPYTFGGGTKVEIKR
notes: also called hLIV-22 HF + hLIV-22 LG
B4: humanized BR2-22a antibody HGLF (antibody, V domains shown)
VH: QVQLVQSGAEVKKPGASVKVSCKASGLTIEDYYMHWVRQAPGQGLEWMGWIDPENGDTEYGPKFQGRVTMTRDTSINTAYMELSRLRSDDTAVYYCAVHNAHYGTWFAYWGQGTLVTVSS
VL: DVVMTQSPLSLPVTLGQPASISCRSSQSLLHSSGNTYLEWYLQRPGQSPKPLIYKISTRFSGVPDRFSGSGSGTDFTLKISRVEAEDVGVYYCFQGSHVPYTFGGGTKVEIKR
notes: also called hLIV-22 HG + hLIV-22 LF
B5: humanized BR2-22a antibody HELA (antibody, V domains shown)
VH: QVQLVQSGAEVKKPGASVKVSCKASGLNIEDYYMHWVRQAPGQGLEWIGWIDPENGDTEYGPKFQGKATMTADTSINTAYMELSRLRSDDTAVYYCTVHNAHYGTWFAYWGQGTLVTVSS
VL: DVVMTQSPLSLPVTLGQPASISCRSSQSLLHSSGNTYLEWFQQRPGQSPRRLIYKISTRFSGVPDRFSGSGSGTDFTLKISRVEAEDVGVYYCFQGSHVPYTFGGGTKVEIKR
notes: also called hLIV-22 HE + hLIV-22 LA
B6: humanized BR2-22a antibody HELE (antibody, V domains shown)
VH: QVQLVQSGAEVKKPGASVKVSCKASGLNIEDYYMHWVRQAPGQGLEWIGWIDPENGDTEYGPKFQGKATMTADTSINTAYMELSRLRSDDTAVYYCTVHNAHYGTWFAYWGQGTLVTVSS
VL: DVVMTQSPLSLPVTLGQPASISCRSSQSLLHSSGNTYLEWFQQRPGQSPRPLIYKISTRFSGVPDRFSGSGSGTDFTLKISRVEAEDVGVYYCFQGSHVPYTFGGGTKVEIKR
notes: also called hLIV-22 HE + hLIV-22 LE
B7: humanized BR2-22a antibody HFLF (antibody, V domains shown)
VH: QVQLVQSGAEVKKPGASVKVSCKASGLTIEDYYMHWVRQAPGQGLEWMGWIDPENGDTEYGPKFQGRVTMTRDTSISTAYMELSRLRSDDTAVYYCAVHNAHYGTWFAYWGQGTLVTVSS
VL: DVVMTQSPLSLPVTLGQPASISCRSSQSLLHSSGNTYLEWYLQRPGQSPKPLIYKISTRFSGVPDRFSGSGSGTDFTLKISRVEAEDVGVYYCFQGSHVPYTFGGGTKVEIKR
notes: also called hLIV-22 HF + hLIV-22 LF
B8: humanized BR2-22a antibody HELC (antibody, V domains shown)
VH: QVQLVQSGAEVKKPGASVKVSCKASGLNIEDYYMHWVRQAPGQGLEWIGWIDPENGDTEYGPKFQGKATMTADTSINTAYMELSRLRSDDTAVYYCTVHNAHYGTWFAYWGQGTLVTVSS
VL: DVVMTQSPLSLPVTLGQPASISCRSSQSLLHSSGNTYLEWFLQRPGQSPRRLIYKISTRFSGVPDRFSGSGSGTDFTLKISRVEAEDVGVYYCFQGSHVPYTFGGGTKVEIKR
notes: also called hLIV-22 HE + hLIV-22 LC

The assay deals with T1, human LIV-1. The assay is described as follows: competition flow cytometry, CHO cells expressing recombinant LIV-1, vs 5 nM AF647-labelled BR2-22a. As to the method: 1×10⁵ CHO cells expressing recombinant LIV-1 in PBS were aliquoted into each well of a 96-well v-bottom plates on ice. […] Cells were pelleted and washed 3 times with PBS. The cells were then pelleted and resuspended in 125 μL of PBS/BSA. Fluorescence was analyzed by flow cytometery, using percent of saturated fluorescent signal to determine percent labeled humanized BR2-22a antibody bound and to subsequently extrapolate the EC50 by fitting the data to a sigmoidal dose-response curve with variable slope.
All permutations of these five heavy chains and six light chains were then tested in a competition assay compared with BR2-22a (see FIG. 17).
Broadly, the EC50 is the concentration that produces a half-maximal response. Consider B1, for which the concentration giving a half-maximal response (EC50) turned out to be 14.4 µg/mL.
For the molecule B2, the EC50 is 0.3 µg/mL.
As to B3, the half-maximal effective concentration (EC50) came out at 0.8 µg/mL.
For B4, the concentration for a half-maximal effect (EC50) was determined as 0.4 µg/mL.
Take B5: the 50% effective concentration (EC50) turned out to be 68.2 µg/mL.
In the case of B6, the EC50 worked out at 25.1 µg/mL.
The value for B7 was 0.8 µg/mL.
On to B8, for which the concentration giving a half-maximal response (EC50) worked out at 65.7 µg/mL.
